Measurements as given in article PMC10585736 (2023).

B1: Pol30p (PCNA), wild type, of the POL30-0 strain [S. cerevisiae] / Rrm3p-Myc [S. cerevisiae] (parent complex)
chain 1: MLEAKFEEASLFKRIIDGFKDCVQLVNFQCKEDGIIAQAVDDSRVLLVSLEIGVEAFQEYRCDHPVTLGMDLTSLSKILRCGNNTDTLTLIADNTPDSIILLFEDTKKDRIAEYSLKLMDIDADFLKIEELQYDSTLSLPSSEFSKIVRDLSQLSDSINIMITKETIKFVADGDIGSGSVIIKPFVDMEHPETSIKLEMDQPVDLTFGAKYLLDIIKGSSLSDRVGIRLSSEAPALFQFDLKSGFLQFFLAPKFNDEE
chain 2: MFRSHASGNKKQWSKRSSNGSTPAASASGSHAYRQQTLSSFFMGCGKKSAAASKNSTTIIDLESGDEGNRNITAPPRPRLIRNNSSSLFSQSQGSFGDDDPDAEFKKLVDVPRLNSYKKSSRSLSMTSSLHKTASASTTQKTYHFDEDETLREVTSVKSNSRQLSFTSTINIEDSSMKLSTDSERPAKRSKPSMEFQGLKLTVPKKIKPLLRKTVSNMDSMNHRSASSPVVLTMEQERVVNLIVKKRTNVFYTGSAGTGKSVILQTIIRQLSSLYGKESIAITASTGLAAVTIGGSTLHKWSGIGIGNKTIDQLVKKIQSQKDLLAAWRYTKVLIIDEISMVDGNLLDKLEQIARRIRKNDDPFGGIQLVLTGDFFQLPPVAKKDEHNVVKFCFESEMWKRCIQKTILLTKVFRQQDNKLIDILNAIRYGELTVDIAKTIRNLNRDIDYADGIAPTELYATRREVELSNVKKLQSLPGDLYEFKAVDNAPERYQAILDSSLMVEKVVALKEDAQVMMLKNKPDVELVNGSLGKVLFFVTESLVVKMKEIYKIVDDEVVMDMRLVSRVIGNPLLKESKEFRQDLNARPLARLERLKILINYAVKISPHKEKFPYVRWTVGKNKYIHELMVPERFPIDIPRENVGLERTQIPLMLCWALSIHKAQGQTIQRLKVDLRRIFEAGQVYVALSRAVTMDTLQVLNFDPGKIRTNERVKDFYKRLETLK

Variants of: B1
Assay: co-immunoprecipitation, western blot band quantification; α-Myc IP; parent: 2.1; read off a plot

Question: How did the response turn out when chain 1 L126A, chain 1 I128A was run?
Answer: ~1.8 pixel density fold over input signal
